Laboratory results published in publication PMC3653948, “PDZ Domain-Mediated Interactions of G Protein-Coupled Receptors with Postsynaptic Density Protein 95: Quantitative Characterization of Interactions” (PLoS ONE, 2013).

How the values were obtained:
PSD-95 PDZ1 (aa 61–151) [1] = molecular target: PSD-95 PDZ1 (aa 61–151) (UniProt P78352); test: fluorescence polarisation; competition: 25 nM Cy5-labeled probe and a constant concentration of PDZ protein corresponding to the K d of the probe, twofold dilution series of unlabeled peptide (typically 1–512 µM); 10 mM HEPES pH 7.4, 150 mM NaCl, 1% BSA; room temperature; K i calculated from the IC50
PSD-95 PDZ3 (aa 309–401) [2] = molecular target: PSD-95 PDZ3 (aa 309–401) (UniProt P78352); test: as above
PSD-95 PDZ2 (aa 155–249) [3] = molecular target: PSD-95 PDZ2 (aa 155–249) (UniProt P78352); test: as above
PSD-95 PDZ1 (aa 61–151) [4] = molecular target: PSD-95 PDZ1 (aa 61–151) (UniProt P78352); test: SPR; PDZ domains immobilised by amine coupling on Sensor Chip CM5 (PDZ1, PDZ2) or CM4 (PDZ3); peptides injected 1 min, 1 min dissociation, 30 µl/min; […]; HBS-EP+ (10 mM HEPES pH 7.4, 150 mM NaCl, 3 mM EDTA, 0.05% Surfactant P-20)
PSD-95 PDZ3 (aa 309–401) [5] = molecular target: PSD-95 PDZ3 (aa 309–401) (UniProt P78352); test: as above
PSD-95 PDZ2 (aa 155–249) [6] = molecular target: PSD-95 PDZ2 (aa 155–249) (UniProt P78352); test: as above

Row | Ki (PSD-95 PDZ1 (aa 61–151) [1]) [µM] | Ki (PSD-95 PDZ3 (aa 309–401) [2]) [µM] | Ki (PSD-95 PDZ2 (aa 155–249) [3]) [µM] | koff (PSD-95 PDZ1 (aa 61–151) [4]) [s⁻¹] | koff (PSD-95 PDZ3 (aa 309–401) [5]) [s⁻¹] | koff (PSD-95 PDZ2 (aa 155–249) [6]) [s⁻¹] | Substance
1 | 160 | > 1000 | 46 |  |  |  | 5-hydroxytryptamine receptor 2A (5-HTR2A) C-tail peptide, human
2 | 100 | 370 | 26 | > 1 | > 1 | > 1 | 5-hydroxytryptamine receptor 2C (5-HTR2C) C-tail peptide, human
3 | 63 | 790 | 29 |  |  |  | BAI1 receptor C-tail peptide, human
4 | 280 | 370 | 370 |  |  |  | chemokine receptor CXCR2 C-tail peptide, human
5 | 50 | 200 | 28 |  |  |  | human somatostatin receptor 1 (hSSTR1) C-tail peptide
6 | 750 | 600 | 450 |  |  |  | human somatostatin receptor 4 (hSSTR4) C-tail peptide
7 | 270 | > 1000 | 90 |  |  |  | mouse somatostatin receptor 1 (mSSTR1) C-tail peptide
8 | > 1000 | > 1000 | 420 |  |  |  | mouse somatostatin receptor 4 (mSSTR4) C-tail peptide
9 | 270 | > 1000 | 230 |  |  |  | neuropeptide Y receptor Y2 C-tail peptide, human
10 | 620 | > 1000 | 230 |  |  |  | somatostatin receptor 2A (SSTR2A) C-tail peptide, human
11 | 610 | 280 | > 1000 |  |  |  | somatostatin receptor 3 (SSTR3) C-tail peptide, human
12 | 430 | 360 | 120 |  |  |  | β1-adrenergic receptor (β1AR) C-tail peptide, human
